Earlier results in patent publication US20200085776A1, “Methods of Reducing C-Reactive Protein and/or Treating Cardiovascular Disease” (CARDAX, INC., priority 2018, published 2020).

Key:
[1] = test system: cardiovascular events; conditions: 15-20 mg/week vs. placebo; cited from earlier work
[2] = test system: vascular events; conditions: 20 mg/D; patients who achieved a reduction in CRP<2.0; cited from earlier work
[3] = target: T1, IL-1β (Homo sapiens, UniProt P01584); conditions: cited from earlier work
T1 construct: host or cells: human trial patients (endogenous IL-1β)

[4] = subjects with a reduction of CRP<2.0 mg/L, regardless of dose

## CN(Cc1cnc2nc(N)nc(N)c2n1)c1ccc(C(=O)N[C@@H](CCC(=O)O)C(=O)O)cc1 [methotrexate]
[1]
  cardiovascular events compared to placebo: did not result in fewer cardiovascular events
  effect on levels of IL-1β, IL-6, CRP: did not reduce levels of IL-1β, IL-6, or CRP

## CC(C)c1nc(N(C)S(C)(=O)=O)nc(-c2ccc(F)cc2)c1/C=C/[C@@H](O)C[C@@H](O)CC(=O)O [rosuvastatin]
[2]
  reduction in vascular events: 62%

## canakinumab: monoclonal antibody that targets IL-1β (printed IL-113)
[3]; active treatment groups, mostly tuberculosis
  deaths from infection: more deaths from infection
[3]; patients with active treatment
  effect on CRP, IL-6 and lipids: a reduction in CRP and IL-6, with no change in lipids
[3]; [4]
  reduction in cardiovascular death and all-cause mortality: 31%
  reduction in the primary end point (composite of myocardial infarction, stroke, or cardiovascular death): 25%
